In US12551573B2, “Compositions and methods for the targeting of PCSK9” (Scribe Therapeutics Inc., priority 2022, dated 2026):
Positions count from the first letter of the chain named. Read-outs that look alike come from different tables or passages of the source.

System: HBEGF locus
Format: cell-based, human
[1] = high-throughput screen of dXR repression of the HBEGF gene, change in abundance of each domain in the library before and after diphtheria toxin selection
[2] = repressor domain in dXR, repression of the HBEGF gene, abundance of domain in library after vs before diphtheria toxin selection

B1: DOMAIN_4774 (protein, listed as Callithrix sp.)
chain: HGSSYEGSVSFRDVAINFSREEWRHLDLSQRNLYWDVMLETYSHLLSVGYQFPKPEVVMLEQGNEPWALQGERPRHSCPGE
For B1, the “Log2 (fold change)” value [1] was 2.8894.

B2: DOMAIN_5005 (protein, listed as Callithrix sp.)
chain: MAFEDVAVYFSEEEWGLLDTAQRALYRHVMLENFTLVTSLGLSTSRPLVVIQLERGEDPWVPSVKDMTLARNAYGRRTTGS
With B2 the “Log2 (fold change)” value [1] was 2.8406.

B3: DOMAIN_5006 (protein, listed as Callithrix sp.)
chain: MAFEDVAVYFSQEEWGLLDTAQRALYRRVMLDNFALVASLGLSTSRPRVVIQLERGEEPWVPSETDMTMSRNTHRRRNPGS
B3 was tested, and the “Log2 (fold change)” value [1] was 3.8614.

B4: DOMAIN_5125 (protein, listed as Callithrix sp.)
chain: MPANEDTPQPGGHGSACEVSVSFEDVTVDFSREEWQQLDSTQRRLYQDVMLENYSHLLSVGFEVPKPEVIFKLEQGEGPWT
For B4, the “Log2 (fold change)” value [1] was 2.911.

B5: DOMAIN_5188 (protein, listed as Aotus trivirgatus)
chain: MITAQGPVSFRDVTVGFTQEEWQHLDPAQRTLYRDVMIENYSHLVSVGYCIPKPEVILKLEKGEEPWISEEKFPSQSHLEL
For B5, the “Log2 (fold change)” value [1] was 2.1842.

B6: DOMAIN_5440 (protein, listed as Aotus trivirgatus)
chain: MAVDLLPAQESMTFRDVAVFFSQDEWLHLDSAQRALYREVMLENYSTLVSLGIPFSMPKVIHQLQQGQDPCMVEGEVPSDI
For B6, the “Log2 (fold change)” value [1] was 2.7871.

B7: DOMAIN_5791 (protein, listed as Homo sapiens)
chain: EPGAVSFADVAVYFCREEWGCLRPAQRALYRDVMRETYGHLSALGIGGNKPALISWVEEEAELWGPAAQDPEVAKCQTQTD
In the case of B7, the “Log2 (fold change)” value [1] is reported as 2.6823.

B8: DOMAIN_5946 (protein, listed as Homo sapiens)
chain: RQAFLAFGDVTVDFTQKEWRLLSPAQRALYREVTLENYSHLVSLGILHSKPELIRRLEQGEVPWGEERRRRPGPCAGIYAE
For B8, the “Log2 (fold change)” value [1] was 3.2998.

B9: DOMAIN_6356 (protein, listed as Terrapene carolina)
chain: MSVTFEDVAMYFSPAEWVLLGEEQKQLYRHVMWENYQTLVSLGIQISKPVVISSIERGEELWAQSPTEDEDEDILSGTSPG
B9 was tested, and the “Log2 (fold change)” value [1] was 2.9197.

B10: DOMAIN_6398 (protein, listed as Gopherus agassizii)
chain: MPVTFEEVAVYFTEGQGALLDPAQRALYRDVMQEIYEMVISLGFLLPKPDVIIQLERGEEPWVPDLQGSAEREMSRGTCAG
B10 was tested, and the “Log2 (fold change)” value [1] was 2.8238.

B11: DOMAIN_6410 (protein, listed as Podarcis muralis)
chain: GLVSFDEVSVHFTNEEWALLDPGQRALYEEVMEEIREMMTSVGDVSEFLTEGEQSEPSREGAEEQKEQRKQRVQVGTYRKE
B11 was tested, and the “Log2 (fold change)” value [1] was 2.7633.

B12: DOMAIN_6433 (protein, listed as Podarcis muralis)
chain: B11 chain with L2S, H11R, T13S, P57L, K80N
B12 was tested, and the “Log2 (fold change)” value [1] was 3.0313.

B13: DOMAIN_6472 (protein, listed as Alligator sinensis)
chain: VVLLEAFEDVAVYFTQKEWALLDDGDKALYRDQMLRNYQALISLGYRGPTPALINRIQRGEMELWVCDKDYGEKSSLEGLF
With B13 the “Log2 (fold change)” value [1] was 2.9259.

B14: DOMAIN_6697 (protein, listed as Podarcis muralis)
chain: B11 chain with L2S, H11R, T13S
B14 was tested, and the “Log2 (fold change)” value [1] was 2.6712.

B15: DOMAIN_6737 (protein)
chain: QMLVTFEDIAVSFSKEEWEYLDEGQKELYREVMKENYQTLISLGTGFPTVIPEIISHIEQGDEPGSEERENGKSSCSGESG
modifications: Microcaecilia unicolor
With B15 the “Log2 (fold change)” value [1] was 2.4861.

B16: DOMAIN_6738 (protein)
chain: FQTLLAFEDVAVFFSEEEWELLDELQKEVYKNTMRENYETLLSLGLTNMKPEIIAKIDAGEAPSVQNASYLEKRGKKSAAG
modifications: Microcaecilia unicolor
In the case of B16, the “Log2 (fold change)” value [1] is reported as 2.9275.

B17: DOMAIN_6938 (protein, listed as Alligator mississippiensis)
chain: SKLPEAFEDVAVYFTRKEWELLEAGDKGLYQDQMLRNYQALVSLGLQGPAPDLICRMQLGEMELWVCDDEEAGESSLSEDF
With B17 the “Log2 (fold change)” value [1] was 2.6093.

B18: DOMAIN_6952 (protein, listed as Alligator mississippiensis)
chain: DQLQEAFEDVALYFTQNEWELLGDGDKVLYRDQMLRNYQALVSLGYQGPAPDLISRIQRQEVELWVCEEENPGESVWTEGL
In the case of B18, the “Log2 (fold change)” value [1] is reported as 2.3403.

B19: DOMAIN_7098 (protein)
chain: QVPVIFEDVAVYFWEEEWEMLEEWQKELYKETMKENYKTLVSLGMELPTEKPDLIVRIEREENPCVKAQWDSRDKTRWRNS
modifications: Microcaecilia unicolor
In the case of B19, the “Log2 (fold change)” value [1] is reported as 2.7074.

B20: DOMAIN_7109 (protein)
chain: MRVTFEDIAVSFSQEEWEYLDEEQKELYREVMKENYQTLISLGAGSLTFTPEIISHIERGEEPYSRDEPGSGEREPGKSRC
modifications: Microcaecilia unicolor
B20 was tested, and the “Log2 (fold change)” value [1] was 2.9932.

B21: DOMAIN_7183 (protein)
chain: VQVPVTFEDVAVYFSEDEWGMLAGWQKELYKETMKENYETLTLLGCLSEKPSLISKIEREEDPCVRDQQDPRDRRKLRSSW
modifications: Microcaecilia unicolor
In the case of B21, the “Log2 (fold change)” value [1] is reported as 2.4918.

B22: DOMAIN_7184 (protein)
chain: TQMQVKFDDIAVSFSQEEWKYLDEEQKELYREVMKENYQILISLGTGSSTTPKIISHIERGEEPYIRDEPVLVERKTGKSS
modifications: Microcaecilia unicolor
For B22, the “Log2 (fold change)” value [1] was 2.2019.

B23: DOMAIN_7353 (protein)
chain: AQMQVTFEDIAVFFCHEEWKYLDDGQKELYKEVMKENYETLISLGFLCEKPSLISKIEREEDPCVRDQQDFRERRRRLKSF
modifications: Microcaecilia unicolor
For B23, the “Log2 (fold change)” value [1] was 2.6649.

B24: DOMAIN_6445 (protein, listed as Alligator sinensis)
chain: MELREAFEDVAVYFTRKEWELLEDEDKELYRDLMLRNYQALVSLGYQGPTPGLICRIKQREVELWVCDDEHHGESSVSENL
With B24 the “Log2 (fold change)” value [1] was 3.1151.

B25: DOMAIN_7605 (protein, listed as Alligator sinensis)
chain: SKLSEAFEDVAVYFTWKEWALLEAADKMLYRDQMLKNYQALFSLGYRGPTPDLICRIQRGEMELWVSDLEEAGESSLSEDS
B25 was tested, and the “Log2 (fold change)” value [2] was 2.8444.

B26: DOMAIN_7607 (protein, listed as Alligator sinensis)
chain: MEPRDAFEDVAVYFTREEWALLDDGDKGLYRDQMLRNYQALVSLGYRGPTPDLICCIQRGKVELWVRDGEDHGEISGSEDL
For B26, the “Log2 (fold change)” value [2] was 2.7102.

B27: DOMAIN_7716 (protein)
chain: VAFEDVAVYFTAEEWDLLGPNQKSLYSEVMMENYENVSYLADNWKKTIAFAHSQKDFIHKLHQRTHKEDEHHTRAEPCEST
modifications: Pogona vitticeps
In the case of B27, the “Log2 (fold change)” value [2] is reported as 3.1171.

B28: DOMAIN_7774 (protein)
chain: PQDSVTFEEVAVSFSREEWALLTDWQKNLYKDVMRDNYEMLNSLDLAAHKPDIILRIERGQEPCVGRLQRSKARERPNHVF
modifications: Pogona vitticeps
In the case of B28, the “Log2 (fold change)” value [2] is reported as 3.427.

B29: DOMAIN_7813 (protein, listed as Columba livia)
chain: WQEPVTFEDVAVYLSHAEWDAMAPEQRELYCSVMLDNYQLLASLGYPGPKPDIVYRLERGEEPWGCAPQSPLSWDGPRSPS
For B29, the “Log2 (fold change)” value [2] was 3.4645.

B30: DOMAIN_8012 (protein, listed as Callipepla squamata)
chain: PSVPVTFRDVFVQFSRDEWALLDDEQKELHQSVMQSNYEVLMSLYCDLAKPEVLLQMERGEPCLPAEPDLQGAAVSLNPAA
With B30 the “Log2 (fold change)” value [2] was 3.2046.

B31: DOMAIN_6807 (protein, listed as Xenopus laevis)
chain: LVKFEEVAVVFSEDEWNLLSDQQRGLYMEVMKENYEHLIYLGYEVPVILSLLQDGGGISSDAGSQSKSQQVAVAEGSNVNS
For B31, the “Log2 (fold change)” value [1] was 3.1615.

B32: DOMAIN_8036 (protein, listed as Alligator mississippiensis)
chain: AQRWEAFEDVALYFTQKEWELLRDGDKVLYQEQMLRNYQALVSLGYQGPTPDLICRIQRGDMELWVCDDEDPKESMWSEGL
With B32 the “Log2 (fold change)” value [2] was 2.3504.

B33: DOMAIN_8282 (protein, listed as Peromyscus maniculatus)
chain: FQNSLTYDDVHINFTCEEWALLDASQKRLYKDVMLETYSNLTAIGYKWEDHNIEEHCQRFRRRGRHKRSRTEERPYECKQC
For B33, the “Log2 (fold change)” value [2] was 3.9882.

B34: DOMAIN_8317 (protein, listed as Mus caroli)
chain: CQALVTFEDVAVTFTDDEWKRLVPVQRALYKAVMLENYESIISLGLPVPRPDLILQFKRRGEPWMRGFHGSEEKAWPESVS
For B34, the “Log2 (fold change)” value [2] was 3.3091.

B35: DOMAIN_8340 (protein, listed as Peromyscus maniculatus)
chain: EQDAVTYEDVHVNFTHEEWALLDPSQKSLYKDVMMETYWNLTCIGYKWEDHNIEEHCQSCRRNGSRCVICHSGHNPCEHKG
For B35, the “Log2 (fold change)” value [2] was 2.2764.

B36: DOMAIN_8424 (protein, listed as Peromyscus maniculatus)
chain: MDAVTYEDVQVSFTREEWTLLDPSQKSLYKDVMVETYRNLTAIGYKWEDQNIKKHHQCSRRHGRHERSNSAEKDYECEQCG
With B36 the “Log2 (fold change)” value [2] was 2.7945.

B37: DOMAIN_8425 (protein, listed as Peromyscus maniculatus)
chain: HKKSMVFSDVSLDFSQEEWECLGPAQKDLYRDVMLENYSHLLSVAGLHIPKPQVISLLEQGKEPWMIGKELTRGLCSALES
B37 was tested, and the “Log2 (fold change)” value [2] was 2.8391.
